Reference: PMC5413942, “Gating of TonB-dependent transporters by substrate-specific forced remodelling” (Nature Communications, 2017)
Where a chain is given by its changes, count along the chain named. Where no end group is shown, it is not given here.

T1: BtuB3A (BtuB I80A/L85A/L96A) (E. coli, UniProt P06129 21-614, I80A | L85A | L96A)
T1 sequence (looked up): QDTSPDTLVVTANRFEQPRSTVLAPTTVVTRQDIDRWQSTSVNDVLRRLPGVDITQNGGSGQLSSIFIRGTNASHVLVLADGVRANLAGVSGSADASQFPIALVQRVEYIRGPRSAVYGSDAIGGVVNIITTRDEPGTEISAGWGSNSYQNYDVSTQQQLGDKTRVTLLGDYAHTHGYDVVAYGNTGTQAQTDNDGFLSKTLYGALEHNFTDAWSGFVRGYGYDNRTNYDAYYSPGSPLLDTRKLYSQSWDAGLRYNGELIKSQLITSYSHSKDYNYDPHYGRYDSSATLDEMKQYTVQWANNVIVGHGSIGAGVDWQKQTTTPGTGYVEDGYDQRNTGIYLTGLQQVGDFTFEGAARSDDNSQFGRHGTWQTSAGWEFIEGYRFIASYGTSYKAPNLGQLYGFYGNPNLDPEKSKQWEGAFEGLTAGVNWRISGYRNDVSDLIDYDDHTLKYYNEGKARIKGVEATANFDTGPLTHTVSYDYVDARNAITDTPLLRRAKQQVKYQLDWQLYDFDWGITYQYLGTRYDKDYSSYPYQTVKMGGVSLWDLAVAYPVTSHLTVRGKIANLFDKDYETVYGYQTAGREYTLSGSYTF

T2: BtuB XL_(loop) (BtuB V29C/V45C) (E. coli, UniProt P06129 21-614, V29C | V45C, disulfide bridge between C29 and C45 (reduced on addition of 2 mM DTT))
T2 sequence (looked up): T1 sequence (looked up) with V29C, V45C, A80I, A85L, A96L

T3: wild-type BtuB (E. coli, UniProt P06129 21-614)
T3 construct: Cyanocobalamin was present at a 100-fold molar excess during reconstitution; also called vitamin B12 TBDT receptor of E. coli
T3 sequence (looked up): T1 sequence (looked up) with A80I, A85L, A96L

B1: Ton box peptide from BtuB (TB_(BtuB)) labelled with Alexa Fluor 488 C5 maleimide (peptide)
peptide: PDTLVVTANRGSWSC(Alexa Fluor 488 C5 maleimide)
notes: also called TB_(BtuB)-Alexa fluor 488; Ton box_(BtuB) peptide; source: synthetic peptide
B2: TonB_(ΔTMD) (soluble TonB, residues 33–239, deletion of the N-terminal transmembrane helix) (domain or fragment)
chain: not shown
notes: Gly-Cys between the (His)6 tag and TonB, translated from the printed forward primer (GGCTGT); the cysteine is for AFM surface attachment; TonB of E. coli, cloned from the genome of E. coli BL21 (DE3), residues 33-239 (without the transmembrane domain, residues 1-32); the forward primer begins at HQVIELP; In the AFM experiments the engineered cysteine was coupled to NHS-PEG24-maleimide on the …
B3: TonBCTD (globular C-terminal domain of TonB without the linker) (domain or fragment)
chain: not shown
notes: Gly-Cys between the (His)6 tag and TonBCTD, translated from the printed forward primer (GGATGT); the cysteine is for AFM surface attachment; C-terminal domain of TonB of E. coli; also called TonB C-terminal domain; source: E. coli BL21 (DE3), pET-23a(+), purified (Ni Sepharose, size exclusion chromatography)

Legend:
Conditions in all cases: both partners purified
[1] = molecular target: B2; assay: MST; Alexa Fluor 488-labelled TB_(BtuB) peptide at constant concentration (500 nM mixed 1:1), TonB_(ΔTMD) titrated 7 nM-244 μM in 16 dilutions; 25 mM Tris-HCl pH 7.5, 128 mM NaCl, 5 min at room temperature; fit by the law of mass action
[2] = molecular target: T1, BtuB3A (BtuB I80A/L85A/L96A); assay: single-molecule force spectroscopy (AFM); TonB construct on the AFM probe through NHS-PEG24-maleimide, TBDT (BtuB, its variants or FhuA) in E. coli polar lipid extract liposomes with its ligand adsorbed on mica; dwell 1 s, retraction 1,000 nm s^-1 unless stated otherwise; 25 mM Tris-HCl pH 8.0, 128 mM NaCl, 25 °C; 2 mM DTT added where stated
[3] = molecular target: T2, BtuB XL_(loop) (BtuB V29C/V45C); assay: as above
[4] = molecular target: T3, wild-type BtuB; assay: as above

Binder: B1
Kd [1]: 9.4 ± 0.3 µM

Binder: B2
binding result [2]: binds
binding result [3]: binds

Binder: B3
binding result [4]: binds
